The labels stand for the following.
T1: human GIP receptor (human, UniProt P48546 22-466)
T1 sequence (looked up): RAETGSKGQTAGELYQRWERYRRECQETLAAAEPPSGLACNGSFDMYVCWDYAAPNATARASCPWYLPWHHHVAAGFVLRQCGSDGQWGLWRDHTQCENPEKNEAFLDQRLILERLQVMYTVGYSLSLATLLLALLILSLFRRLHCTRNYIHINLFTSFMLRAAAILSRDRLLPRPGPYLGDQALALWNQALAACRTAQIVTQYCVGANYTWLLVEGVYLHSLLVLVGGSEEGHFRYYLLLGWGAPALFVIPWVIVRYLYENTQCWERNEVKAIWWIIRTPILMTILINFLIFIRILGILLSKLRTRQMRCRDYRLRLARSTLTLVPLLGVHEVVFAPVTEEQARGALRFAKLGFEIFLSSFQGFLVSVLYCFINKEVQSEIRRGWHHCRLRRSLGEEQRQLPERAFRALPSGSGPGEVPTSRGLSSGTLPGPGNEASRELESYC

B1: Compound No. 24 (peptide)
peptide: Y[Aib]EGTFTSDYSILLEK([εLys-εLys-γGlu-C18 diacid])QAAQEFINWLLAGGPSSGAPPPS-OH
modifications: N-terminus assumed
SMILES: CC[C@H](C)[C@H](NC(=O)[C@H](Cc1ccccc1)NC(=O)[C@H](CCC(=O)O)NC(=O)[C@H](CCC(N)=O)NC(=O)[C@H](C)NC(=O)[C@H](C)NC(=O)[C@H](CCC(N)=O)NC(=O)[C@H](CCCCNC(=O)[C@@H](N)CCCCNC(=O)[C@@H](N)CCCCNC(=O)CC[C@H](NC(=O)CCCCCCCCCCCCCCCCC(=O)O)C(=O)O)NC(=O)[C@H](CCC(=O)O)NC(=O)[C@H](CC(C)C)NC(=O)[C@H](CC(C)C)NC(=O)[C@@H](NC(=O)[C@H](CO)NC(=O)[C@H](Cc1ccc(O)cc1)NC(=O)[C@H](CC(=O)O)NC(=O)[C@H](CO)NC(=O)[C@@H](NC(=O)[C@H](Cc1ccccc1)NC(=O)[C@@H](NC(=O)CNC(=O)[C@H](CCC(=O)O)NC(=O)C(C)(C)NC(=O)[C@@H](N)Cc1ccc(O)cc1)[C@@H](C)O)[C@@H](C)O)[C@@H](C)CC)C(=O)N[C@@H](CC(N)=O)C(=O)N[C@@H](Cc1c[nH]c2ccccc12)C(=O)N[C@@H](CC(C)C)C(=O)N[C@@H](CC(C)C)C(=O)N[C@@H](C)C(=O)NCC(=O)NCC(=O)N1CCC[C@H]1C(=O)N[C@@H](CO)C(=O)N[C@@H](CO)C(=O)NCC(=O)N[C@@H](C)C(=O)N1CCC[C@H]1C(=O)N1CCC[C@H]1C(=O)N1CCC[C@H]1C(=O)N[C@@H](CO)C(=O)O
B2: Compound No. 9 (peptide)
peptide: Y[Aib]EGTFTSDYSIYLEK([εLys-εLys-γGlu-C18 diacid])QAAREFIEWLLAGGPSSGAPPPS-OH
modifications: N-terminus assumed
SMILES: CC[C@H](C)[C@H](NC(=O)[C@H](Cc1ccccc1)NC(=O)[C@H](CCC(=O)O)NC(=O)[C@H](CCCNC(=N)N)NC(=O)[C@H](C)NC(=O)[C@H](C)NC(=O)[C@H](CCC(N)=O)NC(=O)[C@H](CCCCNC(=O)[C@@H](N)CCCCNC(=O)[C@@H](N)CCCCNC(=O)CC[C@H](NC(=O)CCCCCCCCCCCCCCCCC(=O)O)C(=O)O)NC(=O)[C@H](CCC(=O)O)NC(=O)[C@H](CC(C)C)NC(=O)[C@H](Cc1ccc(O)cc1)NC(=O)[C@@H](NC(=O)[C@H](CO)NC(=O)[C@H](Cc1ccc(O)cc1)NC(=O)[C@H](CC(=O)O)NC(=O)[C@H](CO)NC(=O)[C@@H](NC(=O)[C@H](Cc1ccccc1)NC(=O)[C@@H](NC(=O)CNC(=O)[C@H](CCC(=O)O)NC(=O)C(C)(C)NC(=O)[C@@H](N)Cc1ccc(O)cc1)[C@@H](C)O)[C@@H](C)O)[C@@H](C)CC)C(=O)N[C@@H](CCC(=O)O)C(=O)N[C@@H](Cc1c[nH]c2ccccc12)C(=O)N[C@@H](CC(C)C)C(=O)N[C@@H](CC(C)C)C(=O)N[C@@H](C)C(=O)NCC(=O)NCC(=O)N1CCC[C@H]1C(=O)N[C@@H](CO)C(=O)N[C@@H](CO)C(=O)NCC(=O)N[C@@H](C)C(=O)N1CCC[C@H]1C(=O)N1CCC[C@H]1C(=O)N1CCC[C@H]1C(=O)N[C@@H](CO)C(=O)O
B3: Compound No. 2 (peptide)
peptide: Y[Aib]EGTFTSDYSYYLEK([εLys-εLys-γGlu-C20 diacid])QAAQEFVNWLLAGGPSSGAPPPS-NH2
modifications: N-terminus assumed
SMILES: CC(C)C[C@H](NC(=O)[C@H](CC(C)C)NC(=O)[C@H](Cc1c[nH]c2ccccc12)NC(=O)[C@H](CC(N)=O)NC(=O)[C@@H](NC(=O)[C@H](Cc1ccccc1)NC(=O)[C@H](CCC(=O)O)NC(=O)[C@H](CCC(N)=O)NC(=O)[C@H](C)NC(=O)[C@H](C)NC(=O)[C@H](CCC(N)=O)NC(=O)[C@H](CCCCNC(=O)[C@@H](N)CCCCNC(=O)[C@@H](N)CCCCNC(=O)CC[C@H](NC(=O)CCCCCCCCCCCCCCCCCCC(=O)O)C(=O)O)NC(=O)[C@H](CCC(=O)O)NC(=O)[C@H](CC(C)C)NC(=O)[C@H](Cc1ccc(O)cc1)NC(=O)[C@H](Cc1ccc(O)cc1)NC(=O)[C@H](CO)NC(=O)[C@H](Cc1ccc(O)cc1)NC(=O)[C@H](CC(=O)O)NC(=O)[C@H](CO)NC(=O)[C@@H](NC(=O)[C@H](Cc1ccccc1)NC(=O)[C@@H](NC(=O)CNC(=O)[C@H](CCC(=O)O)NC(=O)C(C)(C)NC(=O)[C@@H](N)Cc1ccc(O)cc1)[C@@H](C)O)[C@@H](C)O)C(C)C)C(=O)N[C@@H](C)C(=O)NCC(=O)NCC(=O)N1CCC[C@H]1C(=O)N[C@@H](CO)C(=O)N[C@@H](CO)C(=O)NCC(=O)N[C@@H](C)C(=O)N1CCC[C@H]1C(=O)N1CCC[C@H]1C(=O)N1CCC[C@H]1C(=O)N[C@@H](CO)C(N)=O
B4: Compound No. 23 (peptide)
peptide: Y[Aib]EGTFTSDYSILLEK([εLys-εLys-γGlu-C18 diacid])QAAREFIQWLLAGGPSSGAPPPS-OH
modifications: N-terminus assumed
SMILES: CC[C@H](C)[C@H](NC(=O)[C@H](Cc1ccccc1)NC(=O)[C@H](CCC(=O)O)NC(=O)[C@H](CCCNC(=N)N)NC(=O)[C@H](C)NC(=O)[C@H](C)NC(=O)[C@H](CCC(N)=O)NC(=O)[C@H](CCCCNC(=O)[C@@H](N)CCCCNC(=O)[C@@H](N)CCCCNC(=O)CC[C@H](NC(=O)CCCCCCCCCCCCCCCCC(=O)O)C(=O)O)NC(=O)[C@H](CCC(=O)O)NC(=O)[C@H](CC(C)C)NC(=O)[C@H](CC(C)C)NC(=O)[C@@H](NC(=O)[C@H](CO)NC(=O)[C@H](Cc1ccc(O)cc1)NC(=O)[C@H](CC(=O)O)NC(=O)[C@H](CO)NC(=O)[C@@H](NC(=O)[C@H](Cc1ccccc1)NC(=O)[C@@H](NC(=O)CNC(=O)[C@H](CCC(=O)O)NC(=O)C(C)(C)NC(=O)[C@@H](N)Cc1ccc(O)cc1)[C@@H](C)O)[C@@H](C)O)[C@@H](C)CC)C(=O)N[C@@H](CCC(N)=O)C(=O)N[C@@H](Cc1c[nH]c2ccccc12)C(=O)N[C@@H](CC(C)C)C(=O)N[C@@H](CC(C)C)C(=O)N[C@@H](C)C(=O)NCC(=O)NCC(=O)N1CCC[C@H]1C(=O)N[C@@H](CO)C(=O)N[C@@H](CO)C(=O)NCC(=O)N[C@@H](C)C(=O)N1CCC[C@H]1C(=O)N1CCC[C@H]1C(=O)N1CCC[C@H]1C(=O)N[C@@H](CO)C(=O)O
B5: Compound No. 22 (peptide)
peptide: Y[Aib]EGTFTSDYSILLEK([εLys-εLys-γGlu-C18 diacid])QAAREFVNWLLAGGPSSGAPPPS-OH
modifications: N-terminus assumed
SMILES: CC[C@H](C)[C@H](NC(=O)[C@H](CO)NC(=O)[C@H](Cc1ccc(O)cc1)NC(=O)[C@H](CC(=O)O)NC(=O)[C@H](CO)NC(=O)[C@@H](NC(=O)[C@H](Cc1ccccc1)NC(=O)[C@@H](NC(=O)CNC(=O)[C@H](CCC(=O)O)NC(=O)C(C)(C)NC(=O)[C@@H](N)Cc1ccc(O)cc1)[C@@H](C)O)[C@@H](C)O)C(=O)N[C@@H](CC(C)C)C(=O)N[C@@H](CC(C)C)C(=O)N[C@@H](CCC(=O)O)C(=O)N[C@@H](CCCCNC(=O)[C@@H](N)CCCCNC(=O)[C@@H](N)CCCCNC(=O)CC[C@H](NC(=O)CCCCCCCCCCCCCCCCC(=O)O)C(=O)O)C(=O)N[C@@H](CCC(N)=O)C(=O)N[C@@H](C)C(=O)N[C@@H](C)C(=O)N[C@@H](CCCNC(=N)N)C(=O)N[C@@H](CCC(=O)O)C(=O)N[C@@H](Cc1ccccc1)C(=O)N[C@H](C(=O)N[C@@H](CC(N)=O)C(=O)N[C@@H](Cc1c[nH]c2ccccc12)C(=O)N[C@@H](CC(C)C)C(=O)N[C@@H](CC(C)C)C(=O)N[C@@H](C)C(=O)NCC(=O)NCC(=O)N1CCC[C@H]1C(=O)N[C@@H](CO)C(=O)N[C@@H](CO)C(=O)NCC(=O)N[C@@H](C)C(=O)N1CCC[C@H]1C(=O)N1CCC[C@H]1C(=O)N1CCC[C@H]1C(=O)N[C@@H](CO)C(=O)O)C(C)C

Starred links: 1 amine or outer side, 2 acyl side, 3 side chain; linkers in the order of their positions; H or OH if unused. Non-standard residues stand in square brackets, D forms with d. Groups on a side chain read outwards from the residue. No end group written: not given here. *: point of attachment. C20 diacid = O=C(O)CCCCCCCCCCCCCCCCCCC(=O)*; C18 diacid = O=C(O)CCCCCCCCCCCCCCCCC(=O)*; γGlu = O=C(O)[C@H](CCC(=O)[*:2])N[*:1]; εLys = N[C@@H](CCCCN[*:1])C(=O)[*:2]; Aib = CC(C)(N)C(=O)O

This note sets out measurements from patent publication US20230272029A1, “CO-AGONISTS AT GLP-1 AND GIP RECEPTORS SUITABLE FOR ORAL DELIVERY” (Novo Nordisk A/S, priority 2020, published 2023).

The first test concerns the target human GLP-1 receptor (human, UniProt P43220 24-463). Briefly: cell-based or functional assay.
For the molecule B1, the “hGLP-1R, CRE Luc 0% HSA EC50 (pM)” value is 12.1 pM and the “hGLP-1R, CRE Luc 1% HSA EC50 (pM)” value was determined as 490 pM.

In the case of B2, the “hGLP-1R, CRE Luc 0% HSA EC50 (pM)” value came to 3.8 pM and the “hGLP-1R, CRE Luc 1% HSA EC50 (pM)” value was 279 pM.

For B3, the “hGLP-1R, CRE Luc 0% HSA EC50 (pM)” value was found to be 6 pM and the “hGLP-1R, CRE Luc 1% HSA EC50 (pM)” value was found to be 900 pM.

Consider B4, for which the “hGLP-1R, CRE Luc 0% HSA EC50 (pM)” value amounted to 4.1 pM and the “hGLP-1R, CRE Luc 1% HSA EC50 (pM)” value was 118 pM.

Take B5: the “hGLP-1R, CRE Luc 0% HSA EC50 (pM)” value came to 2.8 pM and the “hGLP-1R, CRE Luc 1% HSA EC50 (pM)” value turned out to be 170 pM.

Another test concerns the target T1, human GIP receptor. In words: cell-based or functional assay.
Take B1: the “hGIPR, CRE Luc 0% HSA EC50 (pM)” value came out at 3.9 pM and the “hGIPR, CRE Luc 1% HSA EC50 (pM)” value is 115 pM.

Turning to B3, the “hGIPR, CRE Luc 0% HSA EC50 (pM)” value is 3.8 pM and the “hGIPR, CRE Luc 1% HSA EC50 (pM)” value amounted to 275 pM.

Consider B4, for which the “hGIPR, CRE Luc 0% HSA EC50 (pM)” value was 6.7 pM and the “hGIPR, CRE Luc 1% HSA EC50 (pM)” value was determined as 134 pM.

On to B5, for which the “hGIPR, CRE Luc 0% HSA EC50 (pM)” value amounted to 6.2 pM and the “hGIPR, CRE Luc 1% HSA EC50 (pM)” value was found to be 169 pM.
